Laboratory results as given in the RNAGym collection of RNA variant scans (doi:10.1021/acssynbio.7b00057).

B1: Pistol ribozyme (parent)
chain: GGGUCGUUGUUCCAUAAUCGCGUGGAUAUGGCACGCAAGUUUCUACCGGGCACCGUAAAUGUCCGACUGGAGCCGUUCGGGCGGCUAUAAACAGACCUCAGGCCCGAAGCGUGGCGGCACCUGCCGCCGGUGGUAAAAAAGAUCGGAAGAGCACACGUCU

Variants of: B1
Test: aptazyme ON/OFF ratio, guanine; higher = stronger switching; co-transcriptional cleavage with and without guanine

Variant	aptazyme ON/OFF ratio
U7G U8G G9U U10A U11G C12U C13A	1.1
U7G U8G G9U U10A U11G C12U C13U	1.08
U7G U8G G9U U10A U11G C12U C13G	1.11
U7G U8G G9U U10A U11A C12U C13A	1.11
U7G U8G G9U U10A U11A C12U C13U	1.18
U7G U8G G9U U10A U11A C12U C13G	1.11
U7G U8G G9U U10C U11C C12G C13G	1.12
U7G U8G G9U U10C U11C C12G C13A	1.19
U7G U8G G9U U10C U11C C12G C13U	1.33
U7G U8G G9U U10G U11G C12A C13A	1.04
U7G U8G G9U U10G U11G C12A C13G	1.1
U7G U8G G9U U10G U11G C12A C13U	1.06
U7G U8G G9U U10C U11A C12U	1.28
U7G U8G G9U U10C U11A C12G	1.25
U7G U8G G9U U10C U11A C12A	1.28
U7G U8G G9U U10G C12A	1.44
U7G U8G G9U U10G C12G	1.33
U7G U8G G9U U10G C12U	1.13
U7G U8G G9U U10A U11G C12A C13U	1.11
U7G U8G G9U U10A U11G C12A C13A	1.1
U7G U8G G9U U10A U11G C12A C13G	1.04
U7G U8G G9U U10A U11A C12U	1.31
U7G U8G G9U U10A U11A C12G C13U	1.14
U7G U8G G9U U10A U11A C12G C13G	1.11

Variant	aptazyme ON/OFF ratio
U7G U8G G9U U10C U11C C13G	1.21
U7G U8G G9U U10C U11C C13U	1.37
U7G U8G G9U U10C U11C C13A	1.28
U7G U8G G9U U10C C12U C13A	1.22
U7G U8G G9U U10C C12U C13G	1.36
U7G U8G G9U U10C C12U C13U	1.35
U7G U8G G9U U10C U11G C12A C13A	1.12
U7G U8G G9U U10C U11G C12A C13U	1.28
U7G U8G G9U U10C U11G C12A C13G	1.15
U7G U8G G9U U10A U11C C12A	1.32
U7G U8G G9U U10A U11C C12G	1.19
U7G U8G G9U U10A U11C C12U	1.22
U7G U8G G9U U10C U11G	1.28
U7G U8G G9U U10C U11C	2.05
U7G U8G G9U U10C U11A	1.47
U7G U8G G9U U10A U11C C12U C13A	1.16
U7G U8G G9U U10A U11C C12U C13G	1.08
U7G U8G G9U U10A U11C C12U C13U	1.29
U7G U8G G9U U10C	1.51
U7G U8G G9U U10G	1.42
U7G U8G G9U U10A U11C	1.09
U7G U8G G9U U10A U11G	1.27
U7G U8G G9U U10G C12U C13G	1.21
U7G U8G G9U U10G C12U C13A	1.17

Variant	aptazyme ON/OFF ratio
U7G U8G G9U U10G C12U C13U	1.2
U7G U8G G9U U10C C12A	1.38
U7G U8G G9U U10C C12U	1.28
U7G U8G G9U U10C C12G	1.22
U7G U8G G9U U10C U11A C12G C13U	1.45
U7G U8G G9U U10C U11A C12G C13A	1.14
U7G U8G G9U U10C U11A C12G C13G	1.15
U7G U8G G9U U10G U11C C12G C13U	1.14
U7G U8G G9U U10G U11C C12G C13G	1.05
U7G U8G G9U U10G U11C C12G C13A	1.1
U7G U8G G9U U10C C12G C13A	1.24
U7G U8G G9U U10C C12G C13G	1.1
U7G U8G G9U U10C C12G C13U	1.25
U7G U8G G9U U10C U11A C12U C13G	1.37
U7G U8G G9U U10C U11A C12U C13A	1.35
U7G U8G G9U U10C U11A C12U C13U	1.36
U7G U8G G9U U10G U11C C12U	1.04
U7G U8G G9U U10G U11C C12G	1.11
U7G U8G G9U U10G U11C C12A	1.13
U7G U8G G9U U10A U11C C12A C13A	1.1
U7G U8G G9U U10A U11C C12A C13G	1.08
U7G U8G G9U U10A U11C C12A C13U	1.17
U7G U8G G9U U10G U11C C12A C13U	1.1
U7G U8G G9U U10G U11C C12A C13G	1.11

Variant	aptazyme ON/OFF ratio
U7G U8G G9U U10G U11C C12A C13A	1.1
U7G U8G G9U U10G U11A C12G C13G	1.15
U7G U8G G9U U10G U11A C12G C13A	1.08
U7G U8G G9U U10G U11A C12G C13U	1.14
U7G U8G G9U U10G U11A C12A C13G	1.06
U7G U8G G9U U10G U11A C12A C13U	1.18
U7G U8G G9U U10G U11A C12A C13A	1.07
U7G U8G G9U U10A U11A C13U	1.28
U7G U8G G9U U10A U11A C13A	1.14
U7G U8G G9U U10A U11A C13G	1.08
U7G U8G G9U U10G C13U	1.36
U7G U8G G9U U10G C13A	1.27
U7G U8G G9U U10G C13G	1.21
U7G U8G G9U U10G C12A C13U	1.16
U7G U8G G9U U10G C12A C13G	1.14
U7G U8G G9U U10G C12A C13A	1.09
U7G U8G G9U U10G U11C	1.1
U7G U8G G9U U10G U11A	1.4
U7G U8G G9U U10G U11G	1.81
U7G U8G G9U U10G U11A C13U	1.19
U7G U8G G9U U10G U11A C13A	1.13
U7G U8G G9U U10G U11A C13G	1.16
U7G U8G G9U U10C U11G C12A	1.32
U7G U8G G9U U10C U11G C12U	1.22

Variant	aptazyme ON/OFF ratio
U7G U8G G9U U10C U11G C12G	1.39
U7G U8G G9U U10G U11A C12U C13A	1.1
U7G U8G G9U U10G U11A C12U C13U	1.2
U7G U8G G9U U10G U11A C12U C13G	1.19
U7G U8G G9U U10A U11C C13G	1.09
U7G U8G G9U U10A U11C C13A	1.11
U7G U8G G9U U10A U11C C13U	1.07
U7G U8G G9U U10G C12G C13U	1.35
U7G U8G G9U U10G C12G C13A	1.13
U7G U8G G9U U10G C12G C13G	1.15
U7G U8G G9U U10C U11G C12G C13G	1.15
U7G U8G G9U U10C U11G C12G C13U	1.26
U7G U8G G9U U10C U11G C12G C13A	1.16
U7G U8G G9U U10G U11A C12U	1.27
U7G U8G G9U U10G U11A C12A	1.13
U7G U8G G9U U10G U11A C12G	1.16
U7G U8G G9U U10A U11G C12A	1.03
U7G U8G G9U U10A U11G C12G	1.08
U7G U8G G9U U10A U11G C12U	1.07
U7G U8G G9U U10C U11A C13A	1.38
U7G U8G G9U U10C U11A C13U	1.23
U7G U8G G9U U10C U11A C13G	1.23
U7G U8G G9U U10C U11C C12A C13U	1.53
U7G U8G G9U U10C U11C C12A C13G	1.3

Variant	aptazyme ON/OFF ratio
U7G U8G G9U U10C U11C C12A C13A	1.33
U7G U8G G9U U10C U11C C12A	1.46
U7G U8G G9U U10C U11C C12U	1.53
U7G U8G G9U U10C U11C C12G	1.46
U7G U8G G9U U10G U11G C13A	1.06
U7G U8G G9U U10C C12A C13A	1.31
U7G U8G G9U U10C C12A C13G	1.29
U7G U8G G9U U10C C12A C13U	1.4
U7G U8G G9U U10G U11C C12U C13G	1.19
U7G U8G G9U U10G U11C C12U C13U	1.03
U7G U8G G9U U10G U11C C12U C13A	1.06
U7G U8G G9U U10G U11G C12A	1.13
U7G U8G G9U U10G U11G C12G	1.16
U7G U8G G9U U10G U11G C12U	1.18
U7G U8G G9U U10C U11G C13A	1.22
U7G U8G G9U U10C U11G C13G	1.21
U7G U8G G9U U10C U11G C13U	1.28
U7G U8G G9U U10C U11A C12A C13G	1.24
U7G U8G G9U U10C U11A C12A C13U	1.33
U7G U8G G9U U10C U11A C12A C13A	1.3
U7G U8G G9U U10G U11G C12G C13U	1.14
U7G U8G G9U U10G U11G C12G C13A	1.09
U7G U8G G9U U10G U11G C12G C13G	1.06
U7G U8G G9U U10C U11G C12U C13G	1.24

Variant	aptazyme ON/OFF ratio
U7G U8G G9U U10C U11G C12U C13U	1.4
U7G U8G G9U U10C U11G C12U C13A	1.23
U7G U8G G9U U10A U11G C13G	1.13
U7G U8G G9U U10A U11G C13A	1.07
U7G U8G G9U U10A U11G C13U	1.12
U7G U8G G9U U10A U11C C12G C13A	1.08
U7G U8G G9U U10A U11C C12G C13U	1.14
U7G U8G G9U U10A U11C C12G C13G	1.09
U7G U8G G9U U10G U11G C12U C13G	1.12
U7G U8G G9U U10G U11G C12U C13U	1.18
U7G U8G G9U U10G U11G C12U C13A	1.11
U7G U8G G9U U10A U11G C12G C13U	1.05
U7G U8G G9U U10A U11G C12G C13A	1.13
U7G U8G G9U U10A U11G C12G C13G	1.06
U7G U8G G9U U10C U11C C12U C13U	1.37
U7G U8G G9U U10C U11C C12U C13A	1.18
U7G U8G G9U U10C U11C C12U C13G	1.41
U7G U8G G9U U10C C13U	1.28
U7G U8G G9U U10C C13A	1.43
U7G U8G G9U U10C C13G	1.31
U7G U8G G9U U10G U11C C13G	1.17
U7G U8G G9U U10G U11C C13A	1.18
U7G U8G G9U U10G U11C C13U	1.11
